Laboratory results: US20170022281A1 (AbbVie / Abbott, published 2017)

T1: human PRLR (Biacore antigen) (human, UniProt P16471 25-234, limits assumed)
T1 construct: The construct injected over captured antibody is not described (a soluble form is likely); also called huPRLR
T1 sequence: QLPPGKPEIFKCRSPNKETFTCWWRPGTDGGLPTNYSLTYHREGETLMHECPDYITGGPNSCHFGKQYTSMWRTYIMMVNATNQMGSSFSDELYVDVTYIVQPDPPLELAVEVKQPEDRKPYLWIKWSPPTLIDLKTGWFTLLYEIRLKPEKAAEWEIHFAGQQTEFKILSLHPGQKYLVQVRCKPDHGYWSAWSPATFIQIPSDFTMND

T2: cyno PRLR ECD-his6 protein (cyno)
T2 chain: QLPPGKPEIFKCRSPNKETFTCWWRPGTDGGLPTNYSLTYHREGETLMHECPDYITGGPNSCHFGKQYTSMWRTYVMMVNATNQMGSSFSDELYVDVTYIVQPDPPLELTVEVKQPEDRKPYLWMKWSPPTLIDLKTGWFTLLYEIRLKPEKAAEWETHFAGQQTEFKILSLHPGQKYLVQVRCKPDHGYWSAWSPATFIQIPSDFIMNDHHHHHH

T3: human PRLR ECD-Fc fusion protein (human, UniProt P16471 25-233)
T3 construct: not shown: Fc region (captured by goat anti-human Fc)
T3 sequence: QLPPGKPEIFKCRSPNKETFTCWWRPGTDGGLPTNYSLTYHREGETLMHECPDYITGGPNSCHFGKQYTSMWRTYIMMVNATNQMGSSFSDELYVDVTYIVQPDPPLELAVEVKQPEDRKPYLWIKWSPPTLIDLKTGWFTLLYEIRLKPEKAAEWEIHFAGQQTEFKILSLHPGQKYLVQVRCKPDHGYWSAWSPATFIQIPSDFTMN

T4: human PRLR on cells (human, UniProt P16471 25-622)
T4 sequence: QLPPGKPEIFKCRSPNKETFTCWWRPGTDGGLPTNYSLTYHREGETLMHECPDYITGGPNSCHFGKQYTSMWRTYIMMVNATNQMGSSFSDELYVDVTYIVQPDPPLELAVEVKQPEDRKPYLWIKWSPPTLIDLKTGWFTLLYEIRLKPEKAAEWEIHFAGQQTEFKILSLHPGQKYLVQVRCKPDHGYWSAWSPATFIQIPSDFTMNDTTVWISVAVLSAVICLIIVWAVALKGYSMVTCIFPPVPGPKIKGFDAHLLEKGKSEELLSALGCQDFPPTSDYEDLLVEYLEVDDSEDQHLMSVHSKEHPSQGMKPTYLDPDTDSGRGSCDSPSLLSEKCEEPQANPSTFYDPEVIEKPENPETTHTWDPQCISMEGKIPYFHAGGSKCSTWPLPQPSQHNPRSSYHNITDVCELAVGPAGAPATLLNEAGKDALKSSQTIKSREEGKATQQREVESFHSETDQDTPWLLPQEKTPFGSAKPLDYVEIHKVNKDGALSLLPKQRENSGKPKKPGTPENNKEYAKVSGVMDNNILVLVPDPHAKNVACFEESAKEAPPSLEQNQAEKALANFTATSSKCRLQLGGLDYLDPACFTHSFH

T5: mouse PRLR on Baf3-mPRLR cells (mouse, UniProt Q08501 20-608)
T5 sequence (looked up): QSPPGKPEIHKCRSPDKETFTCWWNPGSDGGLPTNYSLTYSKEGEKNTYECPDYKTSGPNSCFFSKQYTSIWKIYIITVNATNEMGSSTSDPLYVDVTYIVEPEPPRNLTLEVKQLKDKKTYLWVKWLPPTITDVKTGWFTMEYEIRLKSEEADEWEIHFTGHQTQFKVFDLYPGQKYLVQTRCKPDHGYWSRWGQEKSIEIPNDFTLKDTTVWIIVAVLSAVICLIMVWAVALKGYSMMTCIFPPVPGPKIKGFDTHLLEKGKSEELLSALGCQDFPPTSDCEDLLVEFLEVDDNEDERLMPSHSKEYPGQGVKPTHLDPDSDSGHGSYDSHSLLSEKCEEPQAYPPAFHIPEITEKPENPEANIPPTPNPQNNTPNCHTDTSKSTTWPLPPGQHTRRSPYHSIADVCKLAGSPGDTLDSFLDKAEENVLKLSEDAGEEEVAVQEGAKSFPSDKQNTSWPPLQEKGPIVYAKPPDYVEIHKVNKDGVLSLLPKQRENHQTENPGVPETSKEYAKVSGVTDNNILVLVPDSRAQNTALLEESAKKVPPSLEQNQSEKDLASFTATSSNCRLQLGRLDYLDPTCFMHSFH


What was measured:
[1] = target: T1, human PRLR (Biacore antigen); assay: SPR Biacore
Summary of the method: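 Association rate, dissociation rate and dissociation constant were measured by surface plasmon resonance on a Biacore instrument. PRLR antigen was tested at 600 nM, 66.67 nM and 7.41 nM, a 3-point, 9-fold dilution series. Constants came from a 1:1 binding model fit (local Rmax, mass-transport term included) in Biacore T200 Evaluation Software.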

[2] = target: T2, cyno PRLR ECD-his6 protein; assay: ELISA on ECD
Method: (§1) Plates were blocked for 1 hour with Superblock (Pierce) and washed (3×) with wash buffer (lx PBS (pH 7.4), 0.05% Tween 20). ECD proteins were bound to the appropriate antibody (1 hour) in binding buffer (wash buffer plus 10% Superblock), washed (3×, wash buffer), and then incubated with serial dilutions of antibodies (1 hour) in binding buffer. After washing (3×, wash buffer), secondary antibodies conjugated to HRP were bound (1 hour) in binding buffer, washed (3×, wash buffer), and incubated with TMB substrate (Pierce) to develop signal for 3-5 minutes, stopped with 2N H₂SO₄ and scanned at […]. Curves were fit with GraphPad 5 (Prizm) and EC50's were determined with curve fitting function of GraphPad 5.

[3] = target: T3, human PRLR ECD-Fc fusion protein; assay: ELISA on ECD
Method: as §1

human PRLR on cells = target: T4, human PRLR on cells; assay: cell-based or functional assay
[4] = target: cyno PRLR on Baf3-cyPRLR cells (cyno); assay: cell-based or functional assay
[5] = target: T5, mouse PRLR on Baf3-mPRLR cells; assay: cell-based or functional assay

Binder	Kd [1] [nM]	koff [1] [s⁻¹]	kon [1] [M⁻¹ s⁻¹]	EC50 [2] [nM]	EC50 [3] [nM]	Baf3-hPRLR proliferation IC50 (human PRLR on cells) [µg/mL]	Baf3-cyPRLR proliferation IC50 [4] [µg/mL]	Baf3-mPRLR proliferation IC50 [5] [µg/mL]
Ab14 (antibody, human IgG1, kappa, V domains shown, humanized from Ab6; G1; also called Ab1 HC.1 & Ab1 LC.1) VH: EVQLVQSGAEVKKPGSSVKVSCKASGYTFTTYWMHWVRQAPGQGLEWMGEIDPSDSYSNYNQKFKDRVTITADKSTSTAYMELSSLRSEDTAVYYCARNGGLGPAWFSYWGQGTLVTVSS VL: DIQMTQSPSSVSASVGDRVTITCKASQYVGTAVAWYQQKPGKAPKLLIYSASNRYTGVPSRFSGSGSGTDFTLTISSLQPEDFATYYCQQYSSYPWTFGGGTKVEIKR	4.16	0.00458	1.1e+06	0.031	0.0329	0.3	1.15	> 30
Ab16 (antibody, human IgG1, kappa, V domains shown, humanized from Ab6; G1; also called Ab1 HC.1 and Ab1 LC.2) VH: EVQLVQSGAEVKKPGSSVKVSCKASGYTFTTYWMHWVRQAPGQGLEWMGEIDPSDSYSNYNQKFKDRVTITADKSTSTAYMELSSLRSEDTAVYYCARNGGLGPAWFSYWGQGTLVTVSS VL: EIVMTQSPATLSVSPGERATLSCKASQYVGTAVAWYQQKPGQAPRLLIYSASNRYTGIPARFSGSGSGTEFTLTISSLQSEDFAVYYCQQYSSYPWTFGGGTKVEIKR	4.05	0.00562	1.39e+06	0.0671	0.0641	0.46	1.73	> 30
Ab18 (antibody, human IgG1, kappa, V domains shown, humanized from Ab6; G1; also called Ab1 HC.1a and Ab1 LC.1) VH: EVQLVQSGAEVKKPGSSVKVSCKASGYTFTTYWMHWVRQAPGQGLEWIGEIDPSDSYSNYNQKFKDRATLTVDKSTSTAYMELSSLRSEDTAVYYCARNGGLGPAWFSYWGQGTLVTVSS VL: DIQMTQSPSSVSASVGDRVTITCKASQYVGTAVAWYQQKPGKAPKLLIYSASNRYTGVPSRFSGSGSGTDFTLTISSLQPEDFATYYCQQYSSYPWTFGGGTKVEIKR	1.62	0.00171	1.06e+06	0.111	0.0675	0.15	0.4	> 30
Ab17 (antibody, human IgG1, kappa, V domains shown, humanized from Ab6; G1; also called Ab1 HC.1 and Ab1 LC.2a) VH: EVQLVQSGAEVKKPGSSVKVSCKASGYTFTTYWMHWVRQAPGQGLEWMGEIDPSDSYSNYNQKFKDRVTITADKSTSTAYMELSSLRSEDTAVYYCARNGGLGPAWFSYWGQGTLVTVSS VL: EIVMTQSPATLSVSPGERATLSCKASQYVGTAVAWYQQKPGQSPRLLIYSASNRYTGVPARFSDSGSGTEFTLTISSLQSEDFAVYFCQQYSSYPWTFGGGTKVEIKR	1.06	0.00132	1.25e+06	0.0788	0.0766	0.14	0.27	> 30
Ab15 (antibody, human IgG1, kappa, V domains shown, humanized from Ab6; G1; also called Ab1 HC.1 and Ab1 LC.1a) VH: EVQLVQSGAEVKKPGSSVKVSCKASGYTFTTYWMHWVRQAPGQGLEWMGEIDPSDSYSNYNQKFKDRVTITADKSTSTAYMELSSLRSEDTAVYYCARNGGLGPAWFSYWGQGTLVTVSS VL: DIQMTQSPSSVSASVGDRVTITCKASQYVGTAVAWYQQKPGKSPKLLIYSASNRYTGVPSRFSDSGSGTDFTLTISSLQPEDFATYFCQQYSSYPWTFGGGTKVEIKR	0.837	0.000972	1.16e+06	0.0551	0.0781	0.13	0.19	> 30
Ab44 (antibody, human IgG1, kappa, V domains shown, humanized from Ab8; G1; also called Ab3 HC.1 and Ab3 LC.1) VH: EVQLVQSGAEVKKPGASVKVSCKASGYTFTDYNIHWVRQAPGQGLEWMGYIYPNNDGTGYNQKFKSRVTMTTDTSTSTAYMELRSLRSDDTAVYYCARGDGNYVGDMDYWGQGTTVTVSS VL: DIQMTQSPSSLSASVGDRVTITCRASENIYSYLAWYQQKPGKAPKLLIYNAKTLAEGVPSRFSGSGSGTDFTLTISSLQPEDFATYYCQHHYATPFTFGQGTKLEIKR	–	–	–	0.0945	0.0435	0.3	1.76	> 30
Ab51 (antibody, human IgG1, kappa, V domains shown, humanized from Ab8; G1; also called Ab3 HC.1b and Ab3 LC.1a) VH: EVQLVQSGAEVKKPGASVKVSCKASGYTFTDYNIHWVRQAPGQGLEWIGYIYPNNDGTGYAQKLQGRVTMTVDTSTSTAYMELRSLRSDDTAVYYCARGDGNYVGDMDYWGQGTTVTVSS VL: DIQMTQSPSSLSASVGDRVTITCRASENIYSYLAWYQQKPGKPPKLLVYNAKTLAEGVPSRFSGSGSGTDFTLTISSLQPEDFATYYCQHHYATPFTFGQGTKLEIKR	–	–	–	–	0.287	0.55	100	> 30
Ab50 (antibody, human IgG1, kappa, V domains shown, humanized from Ab8; G1; also called Ab3 HC.1b and Ab3 LC.1) VH: EVQLVQSGAEVKKPGASVKVSCKASGYTFTDYNIHWVRQAPGQGLEWIGYIYPNNDGTGYAQKLQGRVTMTVDTSTSTAYMELRSLRSDDTAVYYCARGDGNYVGDMDYWGQGTTVTVSS VL: DIQMTQSPSSLSASVGDRVTITCRASENIYSYLAWYQQKPGKAPKLLIYNAKTLAEGVPSRFSGSGSGTDFTLTISSLQPEDFATYYCQHHYATPFTFGQGTKLEIKR	–	–	–	–	0.109	0.51	41.6	> 30
Ab52 (antibody, human IgG1, kappa, V domains shown, humanized from Ab8; G1; also called Ab3 HC.1b and Ab3 LC.1b) VH: EVQLVQSGAEVKKPGASVKVSCKASGYTFTDYNIHWVRQAPGQGLEWIGYIYPNNDGTGYAQKLQGRVTMTVDTSTSTAYMELRSLRSDDTAVYYCARGDGNYVGDMDYWGQGTTVTVSS VL: DIQMTQSPSSLSASVGDRVTITCRASENIYSYLAWYQQKPGKAPKLLVYNAKTLAEGVPSRFSGSGSGTDFTLTISSLQPEDFATYYCQHHYATPFTFGQGTKLEIKR	–	–	–	–	0.0913	0.51	305	> 30
Ab47 (antibody, human IgG1, kappa, V domains shown, humanized from Ab8; G1; also called Ab3 HC.1a and Ab3 LC.1) VH: EVQLVQSGAEVKKPGASVKVSCKASGYTFTDYNIHWVRQAPGQGLEWIGYIYPNNDGTGYNQKFKSRATLTVDNSTSTAYMELRSLRSDDTAVYYCARGDGNYVGDMDYWGQGTTVTVSS VL: DIQMTQSPSSLSASVGDRVTITCRASENIYSYLAWYQQKPGKAPKLLIYNAKTLAEGVPSRFSGSGSGTDFTLTISSLQPEDFATYYCQHHYATPFTFGQGTKLEIKR	–	–	–	0.119	0.0819	0.4	3.01	> 30
